Substrate: N[C@@H](CC(=O)O)C(=O)O
Assay: purified protein
Format: biochemical, Plasmodium berghei
Settings: 5 mM glutamine as amino donor, 10 mM ATP, 10 mM MgCl2, 50 mM Tris pH 8.0

B1: PbAS (recombinant P. berghei asparagine synthetase) (Plasmodium berghei ANKA) (protein)
chain: MCGILAIFHSSIETNRLRRKALRLSKILRHRGPDWNGIVVEENGDGTTNVLTHERLSIVDVLSGQQPLYDDKKEICLTINGEIYNHLELRKLVKQDILDALKSKSDCAIIPNLYKIYKEKLPCMLDGIFAGVISDKKYNTFFAFRDPIGICPLYIGYAADGSIWFASEFKALRIYCVRYVAFPPGHYYMCNNGKGEFVRYYNPNWWKLNSPIPNNKIDLEKIRITLENAVIKRLMGDVPFGVLLSGGLDSSIIASIISRHLKSIQTGTINNINGACVGKNNKNLNALKSFSIGLKDSPDLKAAKEVSDFLNTDHTEFHFTVDQGIDTLHDVIYHIETYDITTIRASTPMYILSRLIKSSCIKMVLSGEGSDEIFGGYLYFHKAPNAEEFHRELQRKIHDLHIYDVLRANKSTMAFGIEARVPFLDLEFLDLVMNIDPKEKMCSNNRIEKDILRRAFSGYLPDHILYRQKEQFSDGVGYNWIDGLKEYAEKKVSDAQFSRAPFLFPYNTPKTKEAYLYRCIFYQCFPEQCAQEFVPEGPSIACSTSKAIEWDEQFKVNPDQSGRYVLDVHKHSKNIEDIKAA
notes: full-length cDNA without stop codon in pET-20b(+), BamHI/XhoI, C-terminal 6xHis kept, E. coli Rosetta2DE3pLysS, Ni-NTA, 67 kDa; domains 1-202 and 203-581
  Km: 260 ± 50 µM
